Measured values from PMC11905679.

Columns and labels:
α-chymotrypsin (bovine) [1] = target: α-chymotrypsin (bovine)
α-chymotrypsin (bovine) [2] = target: α-chymotrypsin (bovine); remark: listed apart in the source
α-chymotrypsin (bovine) [3] = target: α-chymotrypsin (bovine); remark: listed apart in the source
α-chymotrypsin (bovine) [4] = assay: enzyme inhibition kinetics

Row | Substance | k3, rate constant of the irreversible inhibition of α-chymotrypsin (BTEE hydrolysis, 256 nm) (α-chymotrypsin (bovine) [1]) | stoichiometry of inhibition (SI), residual chymotrypsin activity against the molar ratio [I]/[E] (α-chymotrypsin (bovine) [2]) | inhibition rate of α-chymotrypsin enzyme activity at 200 nM serpin (α-chymotrypsin (bovine) [3]) | Ki (α-chymotrypsin (bovine) [4])
1 | Trichinella pseudospiralis serine protease inhibitor (Tp-serpin) (natural protein) | 0.00235 s⁻¹ | 1.19 | > 80% | 47.9 nM
2 | Trichinella spiralis serine protease inhibitor (Ts-serpin) (natural protein) | 0.00247 s⁻¹ | 1.21 | > 80% | 49.2 nM
